# Measured values reported in patent US20240400670A1 (JIANGSU HENGRUI PHARMACEUTICALS, published 2024).
# Like-named read-outs stand apart in the source and are kept apart here.
# T1: human IL-23 (Sino Biological, CT048-H08H) (human, UniProt Q9NPF7 20-189; P29460 23-328)
# T1 sequence (looked up) 1: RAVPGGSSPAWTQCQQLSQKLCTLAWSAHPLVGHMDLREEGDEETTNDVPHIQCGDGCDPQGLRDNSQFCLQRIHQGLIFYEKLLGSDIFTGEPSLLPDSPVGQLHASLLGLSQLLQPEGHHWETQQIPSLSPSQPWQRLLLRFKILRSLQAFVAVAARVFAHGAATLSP
# T1 sequence (looked up) 2: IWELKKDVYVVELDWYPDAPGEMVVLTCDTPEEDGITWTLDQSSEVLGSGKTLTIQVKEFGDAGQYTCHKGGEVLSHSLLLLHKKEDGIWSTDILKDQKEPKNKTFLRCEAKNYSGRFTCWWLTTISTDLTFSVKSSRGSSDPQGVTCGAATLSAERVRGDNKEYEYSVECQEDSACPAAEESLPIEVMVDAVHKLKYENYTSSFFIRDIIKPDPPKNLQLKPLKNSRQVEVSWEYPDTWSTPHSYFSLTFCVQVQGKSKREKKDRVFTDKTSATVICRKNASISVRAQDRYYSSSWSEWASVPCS
# T2: mouse IL-23 (R&D Systems, 1887-ML/CF) (mouse, UniProt Q9EQ14 22-196; P43432 23-335)
# T2 construct: also called Mouse IL-23 p19
# T2 sequence (looked up) 1: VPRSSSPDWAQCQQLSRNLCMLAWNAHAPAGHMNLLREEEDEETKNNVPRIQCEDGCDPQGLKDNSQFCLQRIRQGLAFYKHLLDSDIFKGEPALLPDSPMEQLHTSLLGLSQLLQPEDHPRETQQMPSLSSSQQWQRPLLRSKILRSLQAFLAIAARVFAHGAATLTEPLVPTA
# T2 sequence (looked up) 2: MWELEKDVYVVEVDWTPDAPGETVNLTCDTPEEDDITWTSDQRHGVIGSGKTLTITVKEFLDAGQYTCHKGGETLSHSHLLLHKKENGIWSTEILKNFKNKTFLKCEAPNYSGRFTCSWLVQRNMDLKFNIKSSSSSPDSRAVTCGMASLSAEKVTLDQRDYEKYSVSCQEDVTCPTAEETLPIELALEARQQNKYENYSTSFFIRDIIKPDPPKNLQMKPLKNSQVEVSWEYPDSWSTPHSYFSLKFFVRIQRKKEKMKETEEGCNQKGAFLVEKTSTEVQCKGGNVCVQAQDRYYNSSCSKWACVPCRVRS
# Tests used:
# [1] = biological target: T1, human IL-23 (Sino Biological, …); test: cell-based or functional assay
# [2] = biological target: T1, human IL-23 (Sino Biological, …); test: SPR (Biacore), Protein A capture of sample, 1:1 model
# Experimental: (§1) A certain amount of test sample was subjected to affinity capture by a biosensor chip Protein A (GE, 29127556), and then antigens at a series of concentration gradients were allowed to flow on the surface of the chip. The reaction signals were detected in real time by using Biacore (GE, 8 K) to obtain association and dissociation curves. After the dissociation was completed for each cycle, the biochip was washed and regenerated with a 10 mM glycine-hydrochloric acid solution at pH 1.5 (GE, BR-1003-54). Fitting was performed based on the experimental data using BlAevaluation version 4.1 software with a 1:1 model, and affinity values were obtained.
# [3] = biological target: T1, human IL-23 (Sino Biological, …); test: competition ELISA, blocks IL-23/IL-23R; IL-23R coated, biotin-IL-23 + sample gradient
# Experimental: (§2) The specific procedures are as follows:
# The receptor protein was diluted to 2 μg/mL with a PBS (BasalMedia, B320) buffer at pH 7.4 and added to a 96-well microplate (Corning, 3590) at 100 μL/well. The plate was incubated at 4° C. overnight. After the liquid was discarded, 1 % Casein blocking solution (Thermo, 37528) was added at 200 μL/well for blocking, and the plate was incubated at 37° C. for 2 h. After the blocking was complete, the blocking solution was discarded, and the plate was washed 3 times with a PBST buffer (pH 7.4 PBS containing 0.1 % tween-20) for later use. After the biotin-labeled ligand protein at a fixed concentration was mixed with an antibody or fusion protein diluted in a gradient, the mixture was pre-incubated at 37° C. for 30 min and then added to the blocked microplate. The plate was incubated at 37° C. for 1.5 h. After the incubation was complete, the plate was washed 3 times with PBST. Streptavidin-HRP (Invitrogen, 434323, diluted at 1:4000) was added at 100 μL/well, and the plate was incubated at 37° C. for 1 h. The supernatant was removed. After the plate was washed 3 times with PBST, TMB chromogenic substrate (KPL, 5120-0077) was added at 100 μL/well, and the plate was incubated at room temperature for 10⁻¹⁵ min. 1 M H₂SO₄ was added at 50 μL/well to terminate the reaction. The absorbance values at 450 nm were taken using a microplate reader. Curves for the inhibition of binding of the ligands to the receptors were fitted using software, and the IC₅₀ values were calculated.
# [4] = biological target: T2, mouse IL-23 (R&D Systems, 1887-ML/CF); test: SPR (Biacore), Protein A capture of sample
# [5] = biological target: T1, human IL-23 (Sino Biological, …); test: ELISA, sample coated, IL-23 titrated, anti-His-HRP
# Experimental: as §2
# The test sample was diluted to 2 μg/mL with a PBS (BasalMedia, B320) buffer at pH 7.4 and added to a 96-well microplate (Coming, 3590) at 100 μL/well. The plate was incubated at 4° C. overnight. After the liquid was discarded, 5 % skim milk (BD, 232100) diluted with PBS was added at 300 μL/well for blocking, and the mixture was incubated at 37° C. for 2 h. After the blocking was completed, the blocking solution was discarded, and the plate was washed 3 times with a PBST buffer (pH 7.4, PBS containing 0.1 % tween-20). […] After the incubation, the plate was washed 3 times with PBST. […] After the plate was washed 3 times with PBST, a TMB chromogenic substrate (KPL, 5120-0077) was added at 100 μL/well, and the mixture was incubated at room temperature for 10⁻¹⁵ min, and then 1 M H₂SO₄ was added at 50 μL/well to terminate the reaction. The absorbance values at 450 nm were taken using a microplate reader. The binding curves of antibodies to antigens were fitted using software, and the EC₅₀ values were calculated.
# [6] = biological target: cynomolgus monkey IL-23 (Acro Biosystems, ILB-CM52W8) (cynomolgus monkey, UniProt H6WS56 20-189); test: SPR (Biacore), Protein A capture of sample, 1:1 model
# Experimental: as §1
# [7] = biological target: T1, human IL-23 (Sino Biological, …); test: cell-based or functional assay; remark: listed apart in the source
Binder,"Activity in inhibiting proliferation of BaF3-IL-23R cells (IC50, nM) [1] [nM]",Kd [2] [nM],koff [2] [s⁻¹],kon [2] [M⁻¹ s⁻¹],IC50 [3] [nM],binding result [4],EC50 [5] [nM],Kd [6] [nM],koff [6] [s⁻¹],kon [6] [M⁻¹ s⁻¹],"Activity in inhibiting proliferation of BaF3-IL-23R cells (IC50, nM) [7] [nM]"
"Hu38-13 (antibody, human IgG1, kappa, L234A L235A, V domains shown, humanized mAb38, IgG1/kappa) VH: EFQLVQSGAEVKKPGASVKVSCKASGYSFTDHNMNWVRQAPGQSLEWMGVINPNYGTTTYNQKFKGRVTITVDQSASTAYMELSSLRSEDTAVYYCARRGFAYWGQGTLVTVSS VL: DIVMTQTPLSLPVTPGEPASISCRSSKSLLYKDGKTYLNWYLQKPGQSPQLLIYLMSTRASGVPDRFSGSGSGTDFTLKISRVEAEDVGVYYCQQIAEYPFTFGSGTKLEIKR",0.187,0.27,5.56e-05,206000,0.455,–,–,–,–,–,–
"Hu38-4 (antibody, human IgG1, kappa, L234A L235A, V domains shown, humanized mAb38, IgG1/kappa) VH: EFQLVQSGAEVKKPGASVKVSCKASGYTFTDHNMNWVRQAPGQRLEWMGVINPNYGTTTYNQKFKGRVTITVDTSASTAYMELSSLRSEDTAVYYCARRGFAYWGQGTLVTVSS VL: DIVMTQTPLSLPVTPGEPASISCRSSKSLLYKDGKTYLNWFLQKPGQSPQLLIYLMQTRASGVPDRFSGSGSGTDLTLKISRVEAEDVGVYYCQQIAEYPFTFGSGTKLEIKR",0.122,0.196,6.92e-05,353000,0.427,no binding,1.88,0.0768,3.09e-05,402000,–
"Hu38-5 (antibody, human IgG1, kappa, L234A L235A, V domains shown, humanized mAb38, IgG1/kappa) VH: EVQLVQSGAEVKKPGASVKVSCKASGYSFTDHNMNWVRQAPGQRLEWMGVINPNYGTTTYNQKFKGRVTITVDTSASTAYMELSSLRSEDTAVYYCARRGFAYWGQGTLVTVSS VL: DIVMTQTPLSLPVTPGEPASISCRSSKSLLYKDGKTYLNWYLQKPGQSPQLLIYLMSTRASGVPDRFSGSGSGTDFTLKISRVEAEDVGVYYCQQIAEYPFTFGSGTKLEIKR",0.148,0.277,5.82e-05,210000,0.228,–,–,–,–,–,–
"Ch38 (antibody, human IgG1, kappa, L234A L235A, V domains shown, chimeric: murine variable regions on hIgG1/hkappa; also called chimeric antibody of mAb38) VH: EFQLQQSGPELVKPGASVKISCKASGYSFTDHNMNWVKQSNGKSLEWIGVINPNYGTTTYNQKFKGKATLTVDQSSSTAYMQLNILTSEDSAVYYCARRGFAYWGQGTLVTVSA VL: DIVISQDELSNPVTSGESVSISCRSSKSLLYKDGKTYLNWFLQRPGQSPQLLIYLMSTRASGVSDRFSGSGSGTDLTLEISRVKAEDVGVYYCQQIAEYPFTFGSGTKLEIKR",–,0.0901,5.65e-05,627000,0.361,–,1.83,–,–,–,0.222
"risankizumab (antibody, human IgG1, kappa, L234A L235A, V domains shown, control anti-IL-23 antibody; also called control molecule) VH: QVQLVQSGAEVKKPGSSVKVSCKASGYTFTDQTIHWMRQAPGQGLEWIGYIYPRDDSPKYNENFKGKVTITADKSTSTAYMELSSLRSEDTAVYYCAIPDRSGYAWFIYWGQGTLVTVSS VL: DIQMTQSPSSLSASVGDRVTITCKASRDVAIAVAWYQQKPGKVPKLLIYWASTRHTGVPSRFSGSGSRTDFTLTISSLQPEDVADYFCHQYSSYPFTFGSGTKLEIKR",–,0.0651,4.91e-05,754000,0.61,–,–,–,–,–,–

# The remaining lines, values ahead:
"Activity in inhibiting proliferation of BaF3-IL-23R cells (IC50, nM) [1] [nM]",Kd [2] [nM],koff [2] [s⁻¹],kon [2] [M⁻¹ s⁻¹],IC50 [3] [nM],binding result [4],EC50 [5] [nM],Kd [6] [nM],koff [6] [s⁻¹],kon [6] [M⁻¹ s⁻¹],"Activity in inhibiting proliferation of BaF3-IL-23R cells (IC50, nM) [7] [nM]",Binder
0.138,0.18,6.05e-05,337000,0.465,–,–,–,–,–,–,"Hu38-2 (antibody, human IgG1, kappa, L234A L235A, V domains shown, humanized mAb38, IgG1/kappa) VH: EFQLVQSGAEVKKPGASVKVSCKASGYTFTDHNMNWVRQAPGQRLEWMGVINPNYGTTTYNQKFKGRVTITVDTSASTAYMELSSLRSEDTAVYYCARRGFAYWGQGTLVTVSS VL: DIVMTQTPLSLPVTPGEPASISCRSSKSLLYKDGKTYLNWFLQKPGQSPQLLIYLMSTRASGVPDRFSGSGSGTDLTLKISRVEAEDVGVYYCQQIAEYPFTFGSGTKLEIKR"
0.198,0.283,6.68e-05,236000,0.496,–,–,–,–,–,–,"Hu38-9 (antibody, human IgG1, kappa, L234A L235A, V domains shown, humanized mAb38, IgG1/kappa) VH: EFQLVQSGAEVKKPGASVKVSCKASGYSFTDHNMNWVRQAPGQRLEWMGVINPNYGTTTYNQKFKGRVTITVDQSASTAYMELSSLRSEDTAVYYCARRGFAYWGQGTLVTVSS VL: DIVMTQTPLSLPVTPGEPASISCRSSKSLLYKDGKTYLNWYLQKPGQSPQLLIYLMSTRASGVPDRFSGSGSGTDFTLKISRVEAEDVGVYYCQQIAEYPFTFGSGTKLEIKR"
–,0.0207,8.4e-05,4.05e+06,0.386,–,1.16,–,–,–,0.175,"Ch29 (antibody, human IgG1, kappa, L234A L235A, V domains shown, chimeric: murine variable regions on hIgG1/hkappa; also called chimeric antibody of mAb29) VH: QVQLKESGPGLVAPSQSLSITCTVSGFSLTSYAISWVRQPPGKGLEWLGVIWTGGGTNYNSGIKSRLTISKDNSKSQVFLNMNSLQTEDTARYYCVREGDYGSYAGAMDYWGQGTSVTVSS VL: DIVLTQSPASLAVSLGQRATISCRASESVDYYGISSMHWFQQKPGQPPKLLIYRASNLESGIPARFSGSGSRTDFTLTINRVETDDVATYYCQQANKDPYTFGGGTKLEIKR"
